Assay results as given in article doi:10.1101/2020.12.29.424679 (bioRxiv, 2020).
Each block holds one molecule with its values, some of them ahead of it.

B5: Armadillo domain of HSF2BP (ARM, aa 122 to aa 334) (domain or fragment)
chain: EMGAAACTLLWGVSSSEEVVKAILGGDKALKFFSITGQTMESFVKSLDGDVQELDSDESQFVFALAGIVTNVAAIACGREFLVNSSRVLLDTILQLLGDLKPGQCTKLKVLMLMSLYNVSINLKGLKYISESPGFIPLLWWLLSDPDAEVCLHVLRLVQSVVLEPEVFSKSASEFRSSLPLQRILAMSKSRNPRLQTAAQELLEDLRTLEHNV

What was measured:
[1] = target: Mouse HSF2BP-GFP (mouse (knock-in allele in mES cells)) (UniProt Q9D4G2); assay: co-IP
[2] = target: T1, Human full length HSF2BP WT (human, UniProt O75031 1-334); assay: ITC
T1 sequence: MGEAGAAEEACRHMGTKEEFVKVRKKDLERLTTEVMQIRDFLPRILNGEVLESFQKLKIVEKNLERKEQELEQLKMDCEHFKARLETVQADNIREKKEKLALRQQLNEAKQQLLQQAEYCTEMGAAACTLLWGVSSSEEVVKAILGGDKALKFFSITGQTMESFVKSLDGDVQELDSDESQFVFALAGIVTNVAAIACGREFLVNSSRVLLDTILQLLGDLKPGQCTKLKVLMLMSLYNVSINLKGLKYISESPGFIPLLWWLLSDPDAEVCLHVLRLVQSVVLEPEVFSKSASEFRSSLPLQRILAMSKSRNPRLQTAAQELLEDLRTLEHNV

[3] = target: B5; assay: ITC
[4] = target: Mouse BRCA2-GFP Δ12 (mouse (knock-in allele in mES cells)) (UniProt P97929); assay: co-IP
Sequence of Mouse BRCA2-GFP Δ12 (mouse (knock-in allele in mES cells)) (P97929 whole entry, stated change not applied): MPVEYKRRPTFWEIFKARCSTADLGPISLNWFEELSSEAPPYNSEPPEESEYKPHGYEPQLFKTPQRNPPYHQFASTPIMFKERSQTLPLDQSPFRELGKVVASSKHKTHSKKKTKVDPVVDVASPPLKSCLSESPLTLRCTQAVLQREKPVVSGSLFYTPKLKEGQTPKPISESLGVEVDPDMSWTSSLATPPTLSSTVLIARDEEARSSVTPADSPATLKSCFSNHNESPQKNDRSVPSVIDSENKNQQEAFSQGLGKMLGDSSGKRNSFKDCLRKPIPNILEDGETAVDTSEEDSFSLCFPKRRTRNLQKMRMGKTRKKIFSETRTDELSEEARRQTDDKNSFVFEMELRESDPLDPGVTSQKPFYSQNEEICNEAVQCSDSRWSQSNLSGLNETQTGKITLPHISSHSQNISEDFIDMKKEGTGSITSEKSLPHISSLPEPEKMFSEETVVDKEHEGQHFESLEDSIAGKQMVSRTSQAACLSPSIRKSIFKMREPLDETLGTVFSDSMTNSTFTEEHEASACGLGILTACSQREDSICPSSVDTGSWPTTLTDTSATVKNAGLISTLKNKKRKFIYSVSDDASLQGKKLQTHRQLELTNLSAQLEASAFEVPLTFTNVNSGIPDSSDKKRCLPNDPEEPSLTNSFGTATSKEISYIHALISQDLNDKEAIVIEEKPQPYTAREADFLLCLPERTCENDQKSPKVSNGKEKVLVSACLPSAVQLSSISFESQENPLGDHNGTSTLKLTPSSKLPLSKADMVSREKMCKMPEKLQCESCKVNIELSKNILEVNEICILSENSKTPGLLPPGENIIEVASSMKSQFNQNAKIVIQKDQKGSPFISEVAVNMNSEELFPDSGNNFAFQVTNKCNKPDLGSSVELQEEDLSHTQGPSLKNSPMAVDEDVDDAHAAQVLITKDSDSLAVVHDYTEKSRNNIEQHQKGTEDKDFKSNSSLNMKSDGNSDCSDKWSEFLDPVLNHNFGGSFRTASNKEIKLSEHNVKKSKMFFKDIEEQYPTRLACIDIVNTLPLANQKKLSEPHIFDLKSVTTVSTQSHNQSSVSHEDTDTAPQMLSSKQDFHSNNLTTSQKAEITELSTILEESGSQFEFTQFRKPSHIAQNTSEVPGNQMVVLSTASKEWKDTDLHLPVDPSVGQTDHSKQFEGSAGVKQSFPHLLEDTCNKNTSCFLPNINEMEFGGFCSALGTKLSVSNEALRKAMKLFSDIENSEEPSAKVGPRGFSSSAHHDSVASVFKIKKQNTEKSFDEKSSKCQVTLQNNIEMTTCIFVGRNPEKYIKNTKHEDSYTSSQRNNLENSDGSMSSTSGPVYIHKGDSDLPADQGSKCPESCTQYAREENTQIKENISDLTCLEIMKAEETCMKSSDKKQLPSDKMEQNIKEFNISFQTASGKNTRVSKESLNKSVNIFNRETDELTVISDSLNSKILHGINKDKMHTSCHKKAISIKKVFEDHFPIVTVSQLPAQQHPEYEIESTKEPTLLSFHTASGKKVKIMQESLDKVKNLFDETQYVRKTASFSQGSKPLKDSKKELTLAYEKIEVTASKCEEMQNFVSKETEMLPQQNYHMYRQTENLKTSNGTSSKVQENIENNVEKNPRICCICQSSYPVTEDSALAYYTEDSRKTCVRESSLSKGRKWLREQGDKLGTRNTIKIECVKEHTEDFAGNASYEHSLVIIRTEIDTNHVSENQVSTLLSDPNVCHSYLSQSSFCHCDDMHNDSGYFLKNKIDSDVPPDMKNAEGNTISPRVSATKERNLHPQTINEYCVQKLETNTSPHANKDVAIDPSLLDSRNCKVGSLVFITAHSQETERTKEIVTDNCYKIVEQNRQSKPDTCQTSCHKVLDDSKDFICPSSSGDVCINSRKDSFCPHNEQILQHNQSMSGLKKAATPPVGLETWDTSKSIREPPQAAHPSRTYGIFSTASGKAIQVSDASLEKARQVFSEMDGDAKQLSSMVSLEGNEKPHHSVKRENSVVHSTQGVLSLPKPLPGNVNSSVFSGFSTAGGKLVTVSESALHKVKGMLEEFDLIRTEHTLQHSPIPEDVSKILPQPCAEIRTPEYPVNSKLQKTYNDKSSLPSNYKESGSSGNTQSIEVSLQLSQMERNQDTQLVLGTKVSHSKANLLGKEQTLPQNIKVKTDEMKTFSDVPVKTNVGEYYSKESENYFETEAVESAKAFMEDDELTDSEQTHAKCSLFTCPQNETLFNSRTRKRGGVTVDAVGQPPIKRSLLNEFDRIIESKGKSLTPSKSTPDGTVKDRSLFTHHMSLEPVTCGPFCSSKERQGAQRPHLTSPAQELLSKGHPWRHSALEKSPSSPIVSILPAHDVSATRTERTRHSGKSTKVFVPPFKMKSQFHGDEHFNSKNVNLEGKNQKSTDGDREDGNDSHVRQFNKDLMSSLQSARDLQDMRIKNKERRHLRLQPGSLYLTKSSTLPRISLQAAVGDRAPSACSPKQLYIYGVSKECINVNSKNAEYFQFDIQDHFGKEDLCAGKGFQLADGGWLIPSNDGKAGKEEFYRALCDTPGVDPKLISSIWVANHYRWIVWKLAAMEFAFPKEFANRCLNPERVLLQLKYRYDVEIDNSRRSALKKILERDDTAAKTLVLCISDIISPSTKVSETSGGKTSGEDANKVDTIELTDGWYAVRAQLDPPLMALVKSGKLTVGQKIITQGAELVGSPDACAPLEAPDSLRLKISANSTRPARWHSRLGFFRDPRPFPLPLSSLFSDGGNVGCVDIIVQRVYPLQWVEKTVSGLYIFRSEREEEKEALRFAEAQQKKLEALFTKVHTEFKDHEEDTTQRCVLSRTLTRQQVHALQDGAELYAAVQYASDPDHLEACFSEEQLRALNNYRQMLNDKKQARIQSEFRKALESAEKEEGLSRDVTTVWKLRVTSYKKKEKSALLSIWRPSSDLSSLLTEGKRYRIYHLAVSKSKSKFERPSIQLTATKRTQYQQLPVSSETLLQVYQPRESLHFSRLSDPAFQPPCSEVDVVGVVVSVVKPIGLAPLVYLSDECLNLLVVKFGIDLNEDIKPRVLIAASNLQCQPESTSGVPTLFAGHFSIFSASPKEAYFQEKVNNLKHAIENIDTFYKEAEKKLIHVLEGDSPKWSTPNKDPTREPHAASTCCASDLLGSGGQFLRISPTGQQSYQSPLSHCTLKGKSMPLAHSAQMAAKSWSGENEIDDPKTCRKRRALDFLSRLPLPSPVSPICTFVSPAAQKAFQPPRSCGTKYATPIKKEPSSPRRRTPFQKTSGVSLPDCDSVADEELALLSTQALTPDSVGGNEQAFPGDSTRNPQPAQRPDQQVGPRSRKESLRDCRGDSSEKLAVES

SEC-MALS = target: the molecule itself; assay: SEC-MALS
[5] = target: the molecule itself; assay: SEC-MALS + other: SEC-SAXS

percent loss of co-precipitation against wild-type BRCA2 [1]: 97 to 99%
Molecule: Mouse BRCA2-Δ12 (from UniProt P97929 1-3329) (natural protein)

fold weaker affinity than HSF2BP for F0 [2]: 1000 fold | stoichiometry N [2]: 1
Molecule: BRCA2 peptide F15XΔ12 (D2312-E2342)

Kd [3]: ~10 nM | fold higher affinity than ARM for F0 [3]: ~3 fold
B1: Human BRCA2 fragment F15X (N2291-Q2342) (peptide)
chain: NEFDRIIENQEKSLKASKSTPDGTIKDRRLFMHHVSLEPITTVPFRTTKERQ

Kd [2]: 1 nM | fold tighter binding than ARM to F0 [2]: ~25 fold | stoichiometry N [2]: 0.5 | stoichiometry N [3]: 0.5
B2: Human BRCA2 fragment F0 (S2213-Q2342, C2332T) (domain or fragment)
chain: STYSKDSENYFETEAVEIAKAFMEDDELTDSKLPSHATHSLFTCPENEEMVLSNSRIGKRRGEPLILVGEPSIKRNLLNEFDRIIENQEKSLKASKSTPDGTIKDRRLFMHHVSLEPITTVPFRTTKERQ

Kd [3]: ~10 nM | fold higher affinity than ARM for F0 [3]: ~3 fold
B3: Human BRCA2 fragment FNMR (S2252-Q2342) (domain or fragment)
chain: SLFTCPENEEMVLSNSRIGKRRGEPLILVGEPSIKRNLLNEFDRIIENQEKSLKASKSTPDGTIKDRRLFMHHVSLEPITTVPFRTTKERQ

percent loss of co-precipitation against full-length BRCA2-GFP [4]: 95%
B4: Mouse HSF2BP, natively expressed in ES cells (natural protein)
chain: MAATVGDGSGTEEACRNMESKEEFVKVRKKDLERLTTEVMQIRDFLPRILNGELLESFQKLKMVEKNLERKEQELEQLIMDREHFKARLETAQADSGREKKEKLALRQQLNEAKQQLLQQAEYCTQMGAVTCTLLWGVSSSEEVVKTILGGDKALKFFNITGQTMESFVKSLDGDVKEVDSDENQFVFALAGIVTNVAAIACGREFLVNSSRVLLDTMLQLLGDLKPGQCTKLKVLMLMSLYNVSINSKGLKYITESPGFIPLLWWLLSDPDAEVCLHTLRLIQSVVLEPDVFSKVASELQSSLPLQRILAMSKSRNSHLQSAAQELLEDLRALDCNV

Molecule: B5
stoichiometry N (SEC-MALS): 2 | stoichiometry N [5]: 4
